Data from patent US20090149339A1 (published 2009).
Ends that are not written are not given here. * marks the point of attachment. Biotin = O=C1N[C@H]2[C@H](CS[C@H]2CCCCC(=O)*)N1

How the values were obtained:
[1] = target: T1, GST-MPP2 PDZ domain fusion protein (maguk p55 subfamily member 2 (DLG2) AA185-273; PDZ domain 1 of 1) (UniProt P08515 1-218 = GST); experiment: G assay
T1 construct: also called MMP2

[2] = target: T2, GST-NeDLG PDZ domain fusion protein (presynaptic protein sao102, neuroendocrine-dlg; PDZ domains 1-2 of 3) (UniProt P08515 1-218 = GST); experiment: A/G assays
T2 construct: also called NeDLG1

[3] = target: GST-TIAM1 PDZ domain fusion protein (T-lymphoma invasion and metastasis inducing protein 1 AA1001-1088); PDZ 1 … (UniProt P08515 1-218 = GST); experiment: A/G assays
[4] = target: T3, GST-KIAA0303 PDZ domain fusion protein (KIAA0303 AA652-742; PDZ domain 1 of 1) (UniProt P08515 1-218 = GST); experiment: A/G assays
T3 construct: also called K303

[5] = target: T4, GST-KIAA0316 PDZ domain fusion protein (KIAA0316 AA197-284; PDZ domain 1 of 1) (UniProt P08515 1-218 = GST); experiment: A/G assays
T4 construct: also called K316

[6] = target: GST-PTN-4 PDZ domain fusion protein (protein-tyrosine phosphatase meg1 AA774-862; PDZ domain 1 of 1) (UniProt P08515 1-218 = GST); experiment: A/G assays
[7] = target: T5, GST-PSD95 PDZ domain fusion protein (human post-synaptic density protein 95 AA387-724; PDZ domains 1-3 of 3) (human, UniProt P08515 1-218 = GST); experiment: A/G assays
[8] = target: T6, GST-CASK PDZ domain fusion protein (CASK AA495-584; PDZ domain 1 of 1) (mouse, UniProt P08515 1-218 = GST); experiment: A/G assays
T6 construct: also called mCASK

[9] = target: T7, GST-TAX33 PDZ domain fusion protein (tax interaction protein 33 AA73-162; PDZ domain 1 of 1) (UniProt P08515 1-218 = GST); experiment: A/G assays
T7 construct: also called TX33

[10] = target: GST-AF6 PDZ domain fusion protein (af-6 protein AA985-1077; PDZ domain 1 of 1) (UniProt P08515 1-218 = GST); experiment: A/G assays
[11] = target: GST-prIL16 PDZ domain fusion protein (putative interleukin 16 precursor AA170-383; PDZ domains 1-2 of 2) (UniProt P08515 1-218 = GST); experiment: A/G assays
[12] = target: T8, GST-TAX2 PDZ domain fusion protein (human tax interaction protein 2 AA54-140; PDZ domain 1 of 1) (human, UniProt P08515 1-218 = GST); experiment: A/G assays
T8 construct: also called TX 2

[13] = target: GST-LIMK2 PDZ domain fusion protein (human LIM domain kinase 2 AA185-275; PDZ domain 1 of 1) (human, UniProt P08515 1-218 = GST); experiment: A/G assays
[14] = target: GST-MPP1 PDZ domain fusion protein (55 Kd erythrocyte membrane protein AA101-186; PDZ domain 1 of 1) (UniProt P08515 1-218 = GST); experiment: A/G assays
[15] = target: GST-LIM PDZ domain fusion protein (Human LIM protein AA29-112; PDZ domain 1 of 1) (human, UniProt P08515 1-218 = GST); experiment: A/G assays
[16] = target: T9, GST-RGS12 PDZ domain fusion protein (human regulator of G-protein signalling 12 AA35-103; PDZ domain 1 of 1) (human, UniProt P08515 1-218 = GST); experiment: A/G assays
T9 construct: also called RSG12

[17] = target: T10, GST-TAX40 PDZ domain fusion protein (human tax interaction protein 40 AA35-137; PDZ domain 1 of 1) (human, UniProt P08515 1-218 = GST); experiment: A/G assays
T10 construct: also called TX 40

[18] = target: T11, GST-41.8 kD PDZ domain fusion protein (hypothetical 41.8 kD protein AA4-85; PDZ domain 1 of 1) (UniProt P08515 1-218 = GST); experiment: A/G assays
T11 construct: also called hypoth

[19] = target: T12, GST-TAX43 PDZ domain fusion protein (human tax interaction protein 43 AA15-85; PDZ domain 1 of 1) (human, UniProt P08515 1-218 = GST); experiment: A/G assays
T12 construct: also called TX 43

[20] = target: GST-NOS1 PDZ domain fusion protein (human neuronal nitric oxide synthase; PDZ domain 1 of 1) (human, UniProt P08515 1-218 = GST); experiment: A/G assays
[21] = target: T13, GST-KIAA0559 PDZ domain fusion protein (KIAA0559 AA766-870; PDZ1 of 1) (UniProt P08515 1-218 = GST); experiment: A/G assays
T13 construct: also called K559

[22] = target: T14, GST-CBP PDZ domain fusion protein (Cytohesin binding protein HE AA85-175; PDZ domain 1 of 1) (UniProt P08515 1-218 = GST); experiment: A/G assays
T14 construct: also called Prot

[23] = target: T15, GST-SYN1a PDZ domain fusion protein (alpha1-syntrophin AA96-189; PDZ domain 1 of 1) (UniProt P08515 1-218 = GST); experiment: A/G assays
T15 construct: also called SYN 1 alpha; SYNTR 1 alpha

[24] = target: GST-MINT3 PDZ domain fusion protein (human MINT3 AA11-52; PDZ domain 1 of 1) (human, UniProt P08515 1-218 = GST); experiment: A/G assays
[25] = target: GST-DVL1 PDZ domain fusion protein (human dishevelled segment polarity protein homolog AA248-340); PDZ domain … (human, UniProt P08515 1-218 = GST); experiment: A/G assays
[26] = target: T1, GST-MPP2 PDZ domain fusion protein …; experiment: A/G assays
[27] = target: T2, GST-NeDLG PDZ domain fusion protein …; experiment: A assay
[28] = target: T5, GST-PSD95 PDZ domain fusion protein …; experiment: A assay

T6 sequence (P08515 1-218, tags or fused parts left off): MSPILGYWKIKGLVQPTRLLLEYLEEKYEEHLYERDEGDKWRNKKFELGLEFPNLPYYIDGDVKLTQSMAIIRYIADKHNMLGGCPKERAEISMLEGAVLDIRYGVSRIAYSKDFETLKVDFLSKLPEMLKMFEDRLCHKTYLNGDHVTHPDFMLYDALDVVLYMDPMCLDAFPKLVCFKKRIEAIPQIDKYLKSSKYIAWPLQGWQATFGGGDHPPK
Chain of GST-MINT3 PDZ domain fusion protein (human MINT3 AA11-52; PDZ domain 1 of 1) (P08515 1-218, tags or fused parts left off): as above
Chain of GST-LIMK2 PDZ domain fusion protein (human LIM domain kinase 2 AA185-275; PDZ domain 1 of 1) (P08515 1-218, tags or fused parts left off): as above
Chain of GST-PTN-4 PDZ domain fusion protein (protein-tyrosine phosphatase meg1 AA774-862; PDZ domain 1 of 1) (P08515 1-218, tags or fused parts left off): as above
Chain of GST-TIAM1 PDZ domain fusion protein (T-lymphoma invasion and metastasis inducing protein 1 AA1001-1088); PDZ 1 … (P08515 1-218, tags or fused parts left off): as above
Chain of GST-AF6 PDZ domain fusion protein (af-6 protein AA985-1077; PDZ domain 1 of 1) (P08515 1-218, tags or fused parts left off): as above
Chain of GST-NOS1 PDZ domain fusion protein (human neuronal nitric oxide synthase; PDZ domain 1 of 1) (P08515 1-218, tags or fused parts left off): as above
T10 sequence (P08515 1-218, tags or fused parts left off): as above
T7 sequence (P08515 1-218, tags or fused parts left off): as above
T12 sequence (P08515 1-218, tags or fused parts left off): as above
T8 sequence (P08515 1-218, tags or fused parts left off): as above
T9 sequence (P08515 1-218, tags or fused parts left off): as above
T14 sequence (P08515 1-218, tags or fused parts left off): as above
T2 sequence (P08515 1-218, tags or fused parts left off): as above
Chain of GST-DVL1 PDZ domain fusion protein (human dishevelled segment polarity protein homolog AA248-340); PDZ domain … (P08515 1-218, tags or fused parts left off): as above
Chain of GST-LIM PDZ domain fusion protein (Human LIM protein AA29-112; PDZ domain 1 of 1) (P08515 1-218, tags or fused parts left off): as above
T13 sequence (P08515 1-218, tags or fused parts left off): as above
Chain of GST-prIL16 PDZ domain fusion protein (putative interleukin 16 precursor AA170-383; PDZ domains 1-2 of 2) (P08515 1-218, tags or fused parts left off): as above
T11 sequence (P08515 1-218, tags or fused parts left off): as above
Chain of GST-MPP1 PDZ domain fusion protein (55 Kd erythrocyte membrane protein AA101-186; PDZ domain 1 of 1) (P08515 1-218, tags or fused parts left off): as above
T3 sequence (P08515 1-218, tags or fused parts left off): as above

| Binder | binding result [3] | binding result [4] | binding result [5] | binding result [6] | binding result [8] | binding result [9] | binding result [10] | binding result [11] | binding result [12] | binding result [13] | binding result [14] | binding result [15] | binding result [16] | binding result [17] | binding result [18] | binding result [19] | binding result [20] | binding result [21] | binding result [22] | binding result [23] | further results |
| --- | --- | --- | --- | --- | --- | --- | --- | --- | --- | --- | --- | --- | --- | --- | --- | --- | --- | --- | --- | --- | --- |
| Biotin-ERLKLEPHEGLLLRFPYAA [CD98 (2F4) C-terminal PL peptide AA15L, biotinylated] | no binding | no binding | no binding | no binding | no binding | no binding | no binding | no binding | no binding | no binding | no binding | no binding | no binding | no binding | no binding | no binding | no binding | no binding | no binding | no binding | binding result [1]: binds; binding result [2]: no binding; binding result [7]: no binding; binding result [24]: no binding; binding result [25]: no binding |
| Biotin-VTSPNKHLGLVTPHKTELV [CD83 C-terminal PL peptide AA47L, biotinylated] | no binding | no binding | no binding | no binding | no binding | no binding | no binding | no binding | no binding | no binding | no binding | no binding | no binding | no binding | no binding | no binding | no binding | no binding | no binding | no binding | binding result [26]: no binding; binding result [24]: no binding; binding result [25]: no binding; binding result [27]: binds; binding result [28]: binds |
| Biotin-ARHRVTSYTSSSVNVSSNL [CDW128A (IL8RA) C-terminal PL peptide AA29.1L, biotinylated] | no binding | no binding | no binding | no binding | no binding | no binding | no binding | no binding | no binding | no binding | no binding | no binding | no binding | no binding | no binding | no binding | no binding | no binding | no binding | no binding | binding result [26]: no binding; binding result [7]: no binding; binding result [24]: no binding; binding result [25]: no binding; binding result [27]: binds |
